The source of these data is the supplement of paper PMC9732359.

± gives the uncertainty stated by the source.

This data set can be described thus: protein stability index of a GFP-peptide fusion (yeast GPS) (PSI 1-4); higher = more stable; sorted into four equal gates, so the index is relative within each strain. An outline of the steps: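 Tiled 17-residue peptides from yeast proteins were fused downstream of GFP on a plasmid that also expresses Cherry, and the pooled library was carried in yeast. Mid-log cultures grown in leucine-free medium were sorted into four equal gates by GFP/Cherry fluorescence ratio. Plasmids from each gate were PCR-amplified and Illumina-sequenced, and reads were assigned to strains by barcodes. Each peptide's protein stability index is the sum, over gates, of the gate's read frequency multiplied by its gate number.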

As to FAKQVDVQLERVADEDA [IRR1], the protein stability index by setting is: (doa10∆) 3.15 ± 0.15; (pdr5∆) 3.13 ± 0.29; (san1∆) 2.76 ± 0.26.

As to DDAMEINGEDPANNHQL [SMX2], the protein stability index reads like this: (doa10∆) 3.38 ± 0.076; (pdr5∆) 3.02 ± 0.086; (san1∆) 3.3 ± 0.047; (ubr1∆) 3.44 ± 0.071.

In turn, LQVDVDIAGQRDDALVV [RRP42] displayed a protein stability index (doa10∆) of 2.07 ± 0.17.

For the sequence RSPLVTPMDESSYDLLF [SRP72], the protein stability index by setting is: (doa10∆) 2.71 ± 0.13; (pdr5∆) 3.06 ± 0.1; (san1∆) 3.29 ± 0.12; (ubr1∆) 3.2 ± 0.08.

Consider KGLLIWRLLFIDKFIMV [GRR1], for which the protein stability index was determined as 1.43 ± 0.062 (doa10∆), 1.35 ± 0.048 (pdr5∆), 1.41 ± 0.089 (san1∆) and 1.5 ± 0.052 (ubr1∆).

On to STVQTPITASMAAALPN [PGD1], for which the protein stability index was found to be 1.59 ± 0.074 (doa10∆), 1.55 ± 0.099 (pdr5∆), 1.37 ± 0.11 (san1∆) and 1.4 ± 0.05 (ubr1∆).

As for DEGTALSRLGLKRYCCR [RPB10], the protein stability index came out at 3.38 ± 0.11 (doa10∆), 3.23 ± 0.15 (pdr5∆), 3.53 ± 0.079 (san1∆) and 2.79 ± 0.12 (ubr1∆).

The sequence LNEALLQCPMLYVESTG [CSN12] yielded a protein stability index (doa10∆) of 1.47 ± 0.088, a protein stability index (pdr5∆) of 1.26 ± 0.09, a protein stability index (san1∆) of 1.23 ± 0.15 and a protein stability index (ubr1∆) of 1.19 ± 0.054.

The sequence AFKSVVSTETFEQPSQR [RPL27A] came in with a protein stability index (doa10∆) of 2.88 ± 0.062, a protein stability index (pdr5∆) of 2.82 ± 0.059, a protein stability index (san1∆) of 2.71 ± 0.053 and a protein stability index (ubr1∆) of 3.11 ± 0.067.

On to ILNINNSTSKNTLLQQQ [SWI1], for which the protein stability index is 2.37 ± 0.052 (doa10∆), 2.87 ± 0.08 (pdr5∆), 2 ± 0.069 (san1∆) and 2.4 ± 0.047 (ubr1∆).

For the sequence PLSNIKALLFFNNEKET [RPN12], the protein stability index reads like this: (doa10∆) 1.46 ± 0.056; (pdr5∆) 1.4 ± 0.062; (san1∆) 1.2 ± 0.088; (ubr1∆) 1.13 ± 0.053.

Turning to GGDGRDYKGAKLNVVGW [RRI1], the protein stability index by setting is: (doa10∆) 3.15 ± 0.15; (pdr5∆) 3.15 ± 0.15; (san1∆) 2.56 ± 0.12; (ubr1∆) 3.23 ± 0.084.

The sequence EIIGGGSKSASKQTPQP [ISW2] gave a protein stability index (doa10∆) of 2.95 ± 0.081, a protein stability index (pdr5∆) of 3.08 ± 0.092, a protein stability index (san1∆) of 2.97 ± 0.068 and a protein stability index (ubr1∆) of 2.96 ± 0.06.

Turning to GLPTDAYVAIEQVKDDG [RPN8], the protein stability index turned out to be 2.61 ± 0.076 (doa10∆), 1.92 ± 0.1 (pdr5∆), 2.59 ± 0.23 (san1∆) and 2.34 ± 0.08 (ubr1∆).

For the sequence YLIDHIKVEGAVGNLGN [RPL22A], the protein stability index reads like this: (doa10∆) 2.9 ± 0.17; (pdr5∆) 3.11 ± 0.16; (san1∆) 2.89 ± 0.092; (ubr1∆) 3.21 ± 0.11.

For FGANQATNTFGSNQQSS [YGR119C/NUP57], the protein stability index reads like this: (doa10∆) 2.91 ± 0.12; (pdr5∆) 3.26 ± 0.076; (san1∆) 3.2 ± 0.12; (ubr1∆) 2.92 ± 0.073.

In turn, LDLANSGDESNVISSKD [YDL116W/NUP84] came in with a protein stability index (doa10∆) of 3.31 ± 0.09, a protein stability index (pdr5∆) of 3.31 ± 0.067, a protein stability index (san1∆) of 3.25 ± 0.051 and a protein stability index (ubr1∆) of 3.26 ± 0.063.

Consider QGISGSQQNIVPNSSDQ [SNF2], for which the protein stability index runs as follows: (doa10∆) 2.92 ± 0.05; (pdr5∆) 3.11 ± 0.06; (san1∆) 3.16 ± 0.041; (ubr1∆) 2.95 ± 0.053.

With NPPSYQSSEDVITIKSR [RPB7], the protein stability index is, setting by setting: (doa10∆) 2.78 ± 0.17; (san1∆) 2.6 ± 0.12; (ubr1∆) 2.25 ± 0.28.

For the sequence EVQFGLFSPEEVRAISV [RPO21], the protein stability index (doa10∆) was 2.85 ± 0.076, the protein stability index (pdr5∆) is 3.04 ± 0.059, the protein stability index (san1∆) was 3 ± 0.045 and the protein stability index (ubr1∆) came to 3.12 ± 0.034.

Turning to QIPTPNNTVDPGFDEFQ [CSI1], the protein stability index reads like this: (doa10∆) 3.17 ± 0.057; (pdr5∆) 2.98 ± 0.045; (san1∆) 3.04 ± 0.043; (ubr1∆) 2.89 ± 0.039.

KQENETMQPPYIQERLK [MED11]: the protein stability index is 2.88 ± 0.055 (doa10∆), 3.06 ± 0.054 (pdr5∆), 3.19 ± 0.04 (san1∆) and 3.02 ± 0.033 (ubr1∆).

Turning to AAATFPIAQPATDVEAR [RPL13A], the protein stability index is, setting by setting: (doa10∆) 2.65 ± 0.05; (pdr5∆) 2.38 ± 0.042; (san1∆) 2.71 ± 0.066; (ubr1∆) 2.29 ± 0.04.

Regarding HQHIGKASTISRGAVSG [RPL2A], the protein stability index is 2.55 ± 0.043 (doa10∆), 2.39 ± 0.059 (pdr5∆), 2.83 ± 0.055 (san1∆) and 3.12 ± 0.05 (ubr1∆).

The sequence GISLVMEIVANAKESNY [MED1] came in with a protein stability index (doa10∆) of 1.77 ± 0.065, a protein stability index (pdr5∆) of 1.98 ± 0.069, a protein stability index (san1∆) of 2.28 ± 0.085 and a protein stability index (ubr1∆) of 2.15 ± 0.043.

DLDLNEQVRKMYQEWED [NSL1]: the protein stability index turned out to be 2.97 ± 0.13 (doa10∆), 3.39 ± 0.11 (pdr5∆), 3.26 ± 0.071 (san1∆) and 2.92 ± 0.11 (ubr1∆).

For WHGVHRNPARLMETLRT [RPB2], the protein stability index came to 1.35 ± 0.073 (doa10∆), 1.3 ± 0.066 (pdr5∆), 1.55 ± 0.18 (san1∆) and 1.2 ± 0.045 (ubr1∆).

Consider ELVKSYSWLLFEASCME [YJR042W/NUP85], for which the protein stability index runs as follows: (doa10∆) 2.96 ± 0.28; (san1∆) 3.44 ± 0.16; (ubr1∆) 2.41 ± 0.19.

For GAFDQLKQNAIRARIPF [SRP54], the protein stability index stood at 2.69 ± 0.063 (doa10∆), 2.89 ± 0.06 (pdr5∆), 2.9 ± 0.057 (san1∆) and 3.03 ± 0.07 (ubr1∆).

On to KKLFQKKENLTRDETVS [YML103C/NUP188], for which the protein stability index by setting is: (doa10∆) 2.65 ± 0.23; (pdr5∆) 3.29 ± 0.12; (san1∆) 3.01 ± 0.08; (ubr1∆) 3.3 ± 0.088.

Regarding TGAGVDVNTNANANANA [SNF11], the protein stability index stood at 3.12 ± 0.074 (doa10∆), 3.31 ± 0.07 (pdr5∆), 3.19 ± 0.045 (san1∆) and 3.34 ± 0.051 (ubr1∆).

Take FDVNTLCLMTWKEVMFD [CDC53]: the protein stability index runs as follows: (doa10∆) 2.61 ± 0.096; (pdr5∆) 2.59 ± 0.065; (san1∆) 2.81 ± 0.11; (ubr1∆) 2.85 ± 0.068.

On to NLYDGAEHKYMPYTINE [BRR2], for which the protein stability index reads like this: (doa10∆) 3.08 ± 0.071; (pdr5∆) 3.05 ± 0.071; (san1∆) 3.13 ± 0.048; (ubr1∆) 3.28 ± 0.062.

Consider DSKDGTTLNIKVEKRVL [SMB1], for which the protein stability index (pdr5∆) was 3.66 ± 0.22 and the protein stability index (ubr1∆) came to 3.45 ± 0.27.

As to TDYARAKNRILASKIKQ [RRI1], the protein stability index (doa10∆) is 1.93 ± 0.097, the protein stability index (pdr5∆) was 2.07 ± 0.072, the protein stability index (san1∆) is 1.94 ± 0.091 and the protein stability index (ubr1∆) came out at 1.91 ± 0.063.

Regarding VDKGAIMKNKDFILSLL [YJL039C/NUP192], the protein stability index is 2 ± 0.17 (doa10∆), 1.81 ± 0.096 (pdr5∆), 1.95 ± 0.11 (san1∆) and 1.96 ± 0.069 (ubr1∆).

As for PNGSGKSNVIDSMLFVF [SMC4], the protein stability index runs as follows: (doa10∆) 2.87 ± 0.048; (pdr5∆) 2.87 ± 0.051; (san1∆) 2.68 ± 0.055; (ubr1∆) 2.96 ± 0.037.

Regarding AGVSHGTLGEIFIRCNN [SMX3], the protein stability index runs as follows: (doa10∆) 3.57 ± 0.14; (pdr5∆) 3.37 ± 0.096; (san1∆) 2.91 ± 0.094; (ubr1∆) 3.29 ± 0.08.
